This is an account of results in US20080280333.

This data set addresses T1, GlxR (Corynebacterium glutamicum) (UniProt Q79VI7).
T1 sequence: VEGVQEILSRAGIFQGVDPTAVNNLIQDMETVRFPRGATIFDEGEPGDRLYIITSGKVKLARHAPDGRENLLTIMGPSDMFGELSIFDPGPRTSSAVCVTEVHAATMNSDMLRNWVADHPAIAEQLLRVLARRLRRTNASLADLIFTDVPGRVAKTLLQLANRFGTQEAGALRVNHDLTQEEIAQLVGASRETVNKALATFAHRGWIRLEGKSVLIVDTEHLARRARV
Put plainly: cell_activity.

Consider “PaceB-lacZYA reporter (aceB promoter region)”, for which the activity (mU beta-galactosidase) (E. coli DH5alphaF'-145 with pSL145, 27 mU with empty vector pMT1, repression) worked out at 2.5. Also, the activity (beta-galactosidase activity) (E. coli HL994, chromosomal PaceB-lacZYA, 237 with empty vector) was 128.
